Data from article PMC12139721.

Biological target: CUL5-RBX2 (human | mouse) (UniProt Q93034)
Test: SEC + native MS

UniProt Q93034, sequence (Q93034 whole entry, chain 1 of 2): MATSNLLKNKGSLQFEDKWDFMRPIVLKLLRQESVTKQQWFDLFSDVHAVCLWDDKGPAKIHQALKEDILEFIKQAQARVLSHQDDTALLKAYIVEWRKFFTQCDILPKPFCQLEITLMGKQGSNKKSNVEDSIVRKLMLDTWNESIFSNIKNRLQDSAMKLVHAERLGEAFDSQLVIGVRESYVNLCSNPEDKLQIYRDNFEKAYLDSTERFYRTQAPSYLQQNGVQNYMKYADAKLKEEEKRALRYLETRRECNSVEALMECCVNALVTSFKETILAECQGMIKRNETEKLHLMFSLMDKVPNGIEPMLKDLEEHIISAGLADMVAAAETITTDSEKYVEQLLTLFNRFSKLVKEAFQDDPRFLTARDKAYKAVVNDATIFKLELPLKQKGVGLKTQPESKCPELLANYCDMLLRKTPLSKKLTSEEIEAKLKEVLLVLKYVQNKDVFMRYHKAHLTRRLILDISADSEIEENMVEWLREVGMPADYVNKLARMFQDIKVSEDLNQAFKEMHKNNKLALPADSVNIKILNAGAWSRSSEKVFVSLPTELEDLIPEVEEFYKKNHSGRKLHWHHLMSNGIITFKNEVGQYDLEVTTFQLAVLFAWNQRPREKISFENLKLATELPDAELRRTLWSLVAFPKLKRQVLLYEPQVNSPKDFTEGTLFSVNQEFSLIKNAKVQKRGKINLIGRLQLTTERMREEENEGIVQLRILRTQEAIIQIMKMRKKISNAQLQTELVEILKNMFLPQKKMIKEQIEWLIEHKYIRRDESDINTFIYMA
UniProt Q93034, sequence (Q9WTZ1 whole entry, chain 2 of 2, further chain): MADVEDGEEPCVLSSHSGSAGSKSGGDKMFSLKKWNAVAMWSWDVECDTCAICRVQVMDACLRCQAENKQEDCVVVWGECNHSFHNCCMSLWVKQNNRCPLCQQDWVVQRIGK

stoichiometry N: 1
Substance: PCMTD1-ELOBC (from UniProt Q96MG8;Q15370;Q15369) (complex)
